These results are taken from patent US20230025707A1 (University of Pennsylvania, published 2023).

For assay [1], the target named is Lewy body α-Synuclein (human, UniProt P37840 1-140). The experiment in a line: IHC, human amygdala; OD of Lewy bodies / OD of tissue.
Source text: FIG. 2A: Sections of amygdala tissue containing abundant Lewy body pathology were stained using undiluted or 1:3 diluted hybridoma supernatant. […] FIG. 2B: The optical density within Lewy bodies divided by the optical density of a 1 mm² tissue section containing those Lewy bodies was defined as the Lewy Body Discrimination Index. Antibodies preferentially recognizing Lewy bodies score high on this measure.
In order to rapidly screen for antibody selectivity to pathological α-Synuclein, amygdala sections from PD patients with abundant LB pathology were immunostained. Hybridoma supernatants were used undiluted or at a 1:3 dilution on screening slides processed in parallel to allow direct comparison of immunostaining. […] A value of 1 indicates no discrimination of LBs over normal synaptic neuropil staining.
The target in assay [2] is T1, human α-Synuclein pre-formed fibrils (human, UniProt P37840 1-140). The experiment in a line: cell-based or functional assay.
The target of assay [3] is T1, human α-Synuclein pre-formed fibrils. The experiment in a line: sandwich ELISA; PFF vs monomer from EC50s, Syn211 as control. On the technique in general: In an ELISA, binding on a coated surface is turned into a signal by an enzyme label.
Procedure: Fibrils were then sonicated on high for 10 cycles of 30 seconds on, 30 seconds off (Diagenode Biorupter UCD-300 bath sonicator) prior to dilutions. Dilutions were added to each well (30 μL per well) and incubated overnight at 4° C. The plate was washed 4 times with PBST. 30 μL of MJF-R1 (1:3,000, Abcam Cat #ab138501) in Buffer C was added to each well and the plate was incubated for 4 hours at 37° C. After washing with PBST 4 times, 1:10 k diluted goat-anti-rabbit IgG-HRP conjugate (Cell Signaling Technology) was added to the plate and the plate was incubated for 1 hour at 37° C.
This assay retains the conformation of α-Synuclein by allowing binding of α-Synuclein that is in solution to immobilized antibody, and allows a broad range of affinity detection. Antibodies of interest were coated on an ELISA plate and either α-Synuclein monomer or PFF were incubated with the antibodies at increasing α-Synuclein concentrations to determine relative affinity of the antibodies for each form of α-Synuclein.
By fitting the absorbance values with a sigmoid dose curve, EC₅₀ values were calculated for each antibody.

B1: 9005 (antibody, IgG1, V domains shown)
VH: EVMLVESGGGLVKSGGSLKLSCAASGFTFSSYAMSWVRQTPEKRLEWVATISTGGGYTYYPDSVKGRFTISRDNAKNTLYLQMSSLRSEDTAMYYCVRRGTARGYFDVWGAGTTVTVSS
VL: QIVLTQSPAIMSASPGEKVTMTCSASSSVSYMYWYQQKPESSPRLLIYDTSNLASGVPVRFSGSGSGTSYFLTISRMEAEDAATYYCQQWKTYPPTFGGGTKLEIK
In the case of B1, the “LB Discrimination Index” value in assay [1] was determined as 1.68. For the same molecule, the “% Inhibition (primary neuron assay)” value in assay [2] is 90.3%. For the same molecule, in assay [3], the “PFF Preference” value was 1.31.

B2: 9099 (antibody, IgG2b, V domains shown)
VH: EVQLVESGGVLVKPGGSLKLSCAASGFTFSSFAMSWVRQTPEKRLEWVATISNGGSYTYYPDSVKGRFTISRDNAKNTLYLRMSSLRSEDTAMYYCVRRATTRGYFDYWGQGTTLTVSS
VL: QIFLTQSPAIMSASPGEKVTMTCSASSSVSYMYWYQQKPGSSPRLLIYDSSKLASGVPVQFSGSGSGTSYSLTISRMEAEDAATYYCQQWRSYPPTFGAGTKLELK
Consider B2, for which, in assay [1], the “LB Discrimination Index” value amounted to 1.47. For the same molecule, the “% Inhibition (primary neuron assay)” value in assay [2] is 85.3%. For the same molecule, the “PFF Preference” value in assay [3] worked out at 5.26.

B3: 9100 (antibody, IgG2b, V domains shown)
VH: EVQLVESGGVLVKPGGSLKLSCAASGFTFSSFAMSWVRQTPEKRLEWVATISNGGSYTYYPDSVKGRFTISRDNAKNTLYLRMSSLRSEDTAMYYCVRRATTRGYFDYWGQGTTLTVSS
VL: QIFLTQSPAIMSASPGEKVTMTCSASSSVSYMYWYQQKPGSSPRLLIYDSSKLASGVPVQFSGSGSGTSYSLTISRMEAEDAATYYCQQWRSYPPTFGAGTKLELK
As for B3, the “LB Discrimination Index” value in assay [1] stood at 1.62. Besides, the “% Inhibition (primary neuron assay)” value in assay [2] was found to be 91.3%. Moreover, in assay [3], the “PFF Preference” value worked out at 2.73.

B4: 9052 (antibody, IgG2b, V domains shown)
VH: EVQLVESGGVLVKPGGSLKLSCAASGFTFSSFAMSWVRQTPEKRLEWVATISNGGSYTYYPDSVKGRFTISRDNAKNTLYLRMSSLRSEDTAMYYCVRRATTRGYFDYWGQGTTLTVSS
VL: QIFLTQSPAIMSASPGEKVTMTCSASSSVSYMYWYQQKPGSSPRLLIYDSSKLASGVPVQFSGSGSGTSYSLTISRMEAEDAATYYCQQWRSYPPTFGAGTKLELK
Turning to B4, the “LB Discrimination Index” value in assay [1] was found to be 1.74. For the same molecule, the “% Inhibition (primary neuron assay)” value in assay [2] amounted to 84.3%. Besides, the “PFF Preference” value in assay [3] was determined as 1.47.

B5: 9096 (antibody, IgG2b, V domains shown)
VH: EVQLVESGGGLVKPGGSLKLSCAASGFTFSGYAMSWVRQTPEKRLEWVATISNGGSYTYYPDSVKGRFTISRDNAKKTLYLQMSSLRSEDTAMYYCTRRAATRGYFDYWGQGTTLTVSS
VL: QIVLTQSPAIMSASPGEKVTMTCSASSSVSYMYWYQQKPGSSPRLLIYDTSKLASGVPVRFSGSGSGTSYSLTISRMEAEDAATYYCQQWRSYPPTFGAGTKLELK
For the molecule B5, the “LB Discrimination Index” value in assay [1] was 1.3. Moreover, the “% Inhibition (primary neuron assay)” value in assay [2] was found to be 85.1%. The “PFF Preference” value in assay [3] worked out at 1.01.

B6: 9021 (antibody, IgG1, V domains shown)
VH: EVMMVESGGGLVKPGGSLKLSCAASGFTFSNYAMSWVRQTPEKRLEWVATISTGGGYTYYPDSMKGRFTISRDNAKNTLYLQMSSLRSEDTAMYYCARRGTARGYFDVWGAGTTVTVSS
VL: QIVLTQSPAIMSASPGEKVTMTCSASSSVSYMYWYQQKPESSPRLLIYDTSNLASGVPVRFSGSGSGTSYFLTISRMEAEDAATYYCQQWKTYPPTFGGGTKLEIK
With B6, the “LB Discrimination Index” value in assay [1] is 1.81. In addition, the “% Inhibition (primary neuron assay)” value in assay [2] is 84.7%. Also, the “PFF Preference” value in assay [3] was 1.

B7: 9018 (antibody, IgG2b, V domains shown)
VH: EVMLVESGGGLVKPGGSLKLSCAASGFTFSSYAMSWVRQTPEKRLEWVATISTGGGYTYYPDSVKGRFTVSRDNAKNTLYLQMSSLRSEDTAMYYCARRGTSRGYFDVWGAGTTVTVSS
VL: QIILTQSPAIMSASPGEKVTMTCSASSSVSYMYWYQQKPESSPRLLIYDTSNLASGVPVRFSGSGSGTSYFLTISRMEAEDAATYYCQQWKTYPPTFGGGTRLEIK
On to B7, for which the “LB Discrimination Index” value in assay [1] was 1.78. Moreover, the “% Inhibition (primary neuron assay)” value in assay [2] is 86.5%. In addition, in assay [3], the “PFF Preference” value worked out at 1.45.

B8: 9035 (antibody, IgG2b, V domains shown)
VH: EVQLVESGGGLVKPGGSLKLSCGASGFTFSSFAMSWVRQTPEKRLEWVATISNGGSYTYYPDSVQGRFTISRDNAKNTLYLRMSSLRSEDTAMYYCARRSSTRGFFDYWGHGTTLTVSS
VL: QIFLTQSPAIMSASPGEKVTMTCSASSSVSYMYWYQQKPGSSPRLLIYDSSKLASGVPVQFSGSGSGTSYSLTISRMEAEDAATYYCQQWRSYPPTFGAGTKLELK
In the case of B8, the “LB Discrimination Index” value in assay [1] came to 1.9. Moreover, the “% Inhibition (primary neuron assay)” value in assay [2] turned out to be 79%. Further, the “PFF Preference” value in assay [3] is 2.11e+08.

B9: 9047 (antibody, IgG2b, V domains shown)
VH: EVQLVESGGGLVKPGGSLKLSCGASGFTFSSFAMSWVRQTPEKRLEWVATISNGGSYTYYPDSVKGRFTISRDNAKNTLYLRMSSLRSEDTALYYCTRRSSTRGFFDYWGPGTTLTVSS
VL: QIFLTQSPAIMSASPGEKVTMTCSASSSVTYMYWYQQNPGSSPRLLIYDSSKLASGVPVRFSGSGSGTSYSLTISRMEAEDATTYYCQQWKSYPPTFGTGTKLDLK
Take B9: the “LB Discrimination Index” value in assay [1] was 2.46. Moreover, the “% Inhibition (primary neuron assay)” value in assay [2] came out at 84.3%. Besides, in assay [3], the “PFF Preference” value amounted to 133.

B10: 9060 (antibody, IgG1, V domains shown)
VH: EVHLVESGGGLVQPKGSLKLSCAASGFTFNTYAMHWVRQAPGKGLEWVARIRNKSNNYATYYADSVKDRFTISRDDSQSMLFLQMDNLKTEDTAIYYCVRGGLSPFDYWGQGTTLTVSS
VL: QIVLTQSPAIMSASPGEKVTMTCSASSSVTYMHWYQQKSGTSPKRWIYDTSKLASGVPARFSGSGSGTSYSLTISSMEAEDAATYYCQQWSSNPPTFGGGTKLEIR
As to B10, in assay [1], the “LB Discrimination Index” value came out at 1.92. Also, the “% Inhibition (primary neuron assay)” value in assay [2] is 83.8%. In addition, the “PFF Preference” value in assay [3] came to 0.73.

B11: 9064 (antibody, IgG1, V domains shown)
VH: EVHLVESGGGLVQPKGSLKLSCAASGFTFNTYAMHWVRQAPGKGLEWVARIRNKSNNYATYYADSVKDRFTISRDDSQSMLFLQMDNLKTEDTAIYYCVRGGLSPFDYWGQGTTLTVSS
VL: QIVLTQSPAIMSASPGEKVTMTCSASSSVTYMHWYQQKSGTSPKRWIYDTSKLASGVPARFSGSGSGTSYSLTISSMEAEDAATYYCQQWSSNPPTFGGGTKLEIR
In the case of B11, the “LB Discrimination Index” value in assay [1] amounted to 1.95. The “% Inhibition (primary neuron assay)” value in assay [2] stood at 88.1%. Further, the “PFF Preference” value in assay [3] stood at 0.855.

B12: 9071 (antibody, IgG1, V domains shown)
VH: EVHLVESGGGLVQPKGSLKLSCAASGFTFNTYAMHWVRQAPGKGLEWVARIRNKSNNYATYYADSVKDRFTISRDDSQSMLFLQMDNLKTEDTAIYYCVRGGLSPFDYWGQGTTLTVSS
VL: QIVLTQSPAIMSASPGEKVTMTCSASSSVTYMHWYQQKSGTSPKRWIYDTSKLASGVPARFSGSGSGTSYSLTISSMEAEDAATYYCQQWSSNPPTFGGGTKLEIR
In the case of B12, the “LB Discrimination Index” value in assay [1] came to 1.89. For the same molecule, in assay [2], the “% Inhibition (primary neuron assay)” value worked out at 79.3%. In addition, the “PFF Preference” value in assay [3] stood at 0.605.

B13: 9003 (antibody, IgG1, V domains shown)
VH: EVQLVESGGGLVQPKGSLKLSCAASGFTFNTYAMHWVRQAPGKGLEWVARIRSESNNFATYYADSVKDSFTISRDDSQSMLYLQMNNLKTEDTAVYYCVRGGLSPFDYWGQGTTLTVSS
VL: QIVLTQSPAIMSASPGEKVTMTCSASSSVSYMHWYQQKSGTSPKRWIYDTSKLASGVPARFSGSGSGTSYSLTINSMEAEDAATYYCQQWSRNPPTFGGGTKLEIK
With B13, the “LB Discrimination Index” value in assay [1] is 1.94. Also, the “% Inhibition (primary neuron assay)” value in assay [2] stood at 82%. Besides, the “PFF Preference” value in assay [3] is 0.565.

B14: 9014 (antibody, IgG1, V domains shown)
VH: EVQLVESGGGLVQPKGSLKLSCAASGFTFNTYAMHWVRQAPGKGLEWVARIRSESNNFATYYADSVKDSFTISRDDSQSMLYLQMNNLKTEDTAVYYCVRGGLSPFDYWGQGTTLTVSS
VL: QIVLTQSPAIMSASPGEKVTMTCSASSSVSYMHWYQQKSGTSPKRWIYDTSKLASGVPARFSGSGSGTSYSLTINSMEAEDAATYYCQQWSRNPPTFGGGTKLEIK
With B14, the “LB Discrimination Index” value in assay [1] is 1.87. Also, the “% Inhibition (primary neuron assay)” value in assay [2] worked out at 81.7%. Further, the “PFF Preference” value in assay [3] turned out to be 0.478.

B15: 9009 (antibody, IgG1, V domains shown)
VH: EVQLVESGGGLVQPKGSLKLSCAASGFTFNTYAMHWVRQAPGKGLEWVARIRSESNNFATYYADSVKDSFTISRDDSQSMLYLQMNNLKTEDTAVYYCVRGGLSPFDYWGQGTTLTVSS
VL: QIVLTQSPAIMSASPGEKVTMTCSASSSVSYMHWYQQKSGTSPKRWIYDTSKLASGVPARFSGSGSGTSYSLTINSMEAEDAATYYCQQWSRNPPTFGGGTKLEIK
B15: in assay [1], the “LB Discrimination Index” value was 1.82. Further, in assay [2], the “% Inhibition (primary neuron assay)” value was 81%. The “PFF Preference” value in assay [3] amounted to 0.507.

B16: 9004 (antibody, IgG2b, V domains shown)
VH: EVHLVESGGGLVQPKGSLKLSCAASGFTFNTYAMHWVRQAPGKGLEWVARIRSKSNNYATYYADSVKDRFTISRDDSQSMLYLQMNNLKTEDTAMYYCVRGGLSPFDYWGQGTTLTVSS
VL: QIVLTQSPAIMSASPGEKVTMTCSASSSVTYMHWYQQKSGTSPKRWIYDTSKLASGVPARFSGSGSGTSYSLTISSMEAEDAATYYCQQWSSNPPTFGGGTKLEIR
As for B16, in assay [1], the “LB Discrimination Index” value was 1.91. Further, the “% Inhibition (primary neuron assay)” value in assay [2] is 62.7%. In addition, in assay [3], the “PFF Preference” value was found to be 1.02.

B17: 9092 (antibody, IgG1, V domains shown)
VH: QVQLQQSGPELVKPGASVRISCKASGYTFTTFYLHWVKQRPGQGLEWIGWIYPVNVKIKYSERFKGKATLTADKSSSTAYMQLGSLTSEDSAVYFCVRGGRGLDYWGQGTTLTVSS
VL: NIMMTQSPSSLAVSAGEKVTMSCKSSQSVLYSSNQKNYLAWYQQKPGQSPKMLIYWASFRESGVPDRFTGSGSGTDFTLTISSVQAEDLAVYYCHQYLSLFTFGSGTKLEIK
For B17, in assay [1], the “LB Discrimination Index” value came out at 1.9. The “% Inhibition (primary neuron assay)” value in assay [2] was -27.9%. Besides, the “PFF Preference” value in assay [3] was 93.8.
